{
  "source": "paper PMC11957051",
  "key": {"[1]": {"target": "P. fluorescens RloA, Pfl01_1762 (20–178) (P. fluorescens)", "assay": "SEC-MALS"}, "[2]": {"target": "P. aeruginosa RloA2, PA0462 (18–169) (P. aeruginosa)", "assay": "SEC-MALS"}},
  "data": [
    {"substance": "P. fluorescens RloA, Pfl01_1762 (20–178) (enzyme)", "values": [
      {"measurement": "stoichiometry N", "setting": "[1]", "result": 2}
    ]},
    {"substance": "P. aeruginosa RloA2, PA0462 (18–169) (enzyme)", "values": [
      {"measurement": "stoichiometry N", "setting": "[2]", "result": 2}
    ]}
  ]
}
